For one molecule, Kd results are on record in patent CN116813757A (INST MICROBIOLOGY CAS, dated 2023).

This assay deals with SARS-CoV-2原始毒株的RBD蛋白 (SARS-CoV-2 RBD-his蛋白) (SARS-CoV-2 original strain, UniProt P0DTC2 319-541).

B1: 单链纳米抗体R14 (R14-his蛋白) (VHH)
VHH: QVQLQESGGGLVQPGGSLRLSCAVSGFTLDYYAIGWFRQAPGKEREGVSCISSSDGSTSYADSVKGRFTISRDNAKNTVYLQMNSLKPEDTALYYCAATPATYYSGRYYYQCPAGGMDYWGQGTQVTVSS
One may read the Kd as the concentration at which binding is half-saturated. Molecule B1 registered a Kd of less than 0.1 nM.
